The text below walks through data of article PMC6058054, “Mining the Genome of Streptomyces leeuwenhoekii: Two New Type I Baeyer–Villiger Monooxygenases From Atacama Desert” (Frontiers in Microbiology, 2018).

Series [1] deals with T1, Sle_62070 (Streptomyces leeuwenhoekii, UniProt A0A0F7W6X7).
T1 construct: full-length, fused to N-terminal His-tagged phosphite dehydrogenase (PTDH) in pCRE2, fusion kept; expressed in E. coli NEB 10-beta; FAD flavoprotein
The series is described as follows: UV-vis spectrum of purified flavoprotein; FAD quantified after SDS unfolding. It is filed as binding. Particulars: co-purified FAD.

The target in series [2] is T2, Sle_13190 (Streptomyces leeuwenhoekii, UniProt A0A0F7VUW7).
T2 construct: full-length, fused to N-terminal His-tagged phosphite dehydrogenase (PTDH) in pCRE2, fusion kept; expressed in E. coli NEB 10-beta; FAD flavoprotein
The series is described as above. The conditions noted are these: co-purified FAD. The series is classed as binding.

Substrate in series [3]: O=C1CC2C=CCC12
The series is described as follows: purified protein. It is filed as biochemical, Streptomyces leeuwenhoekii. Particulars: 150 uM NADPH, 10 uM FAD, 50 mM Tris-HCl pH 8.0, 10% glycerol, 100 mM NaCl, 2.5% 1,4-dioxane, 25 C.

Substrate in series [4]: O=C1CCCCC1c1ccccc1
The series is described as follows: purified protein. It is filed as biochemical, Streptomyces leeuwenhoekii. Particulars: 150 uM NADPH, 10 uM FAD, 50 mM Tris-HCl pH 8.0, 10% glycerol, 100 mM NaCl, 2.5% 1,4-dioxane, 25 C.

Substrate in series [5]: O=C1CCC(c2ccccc2)CC1
The series is described as follows: purified protein. The series is classed as biochemical, Streptomyces leeuwenhoekii. Particulars: 150 uM NADPH, 10 uM FAD, 50 mM Tris-HCl pH 8.0, 10% glycerol, 100 mM NaCl, 2.5% 1,4-dioxane, 25 C.

Substrate in series [6]: CC(=O)Cc1ccccc1
The series is described as follows: purified protein. Particulars: 150 uM NADPH, 10 uM FAD, 50 mM Tris-HCl pH 8.0, 10% glycerol, 100 mM NaCl, 2.5% 1,4-dioxane, 25 C.

Take `Cc1cc2nc3c(=O)[nH]c(=O)nc-3n(C[C@H](O)[C@H](O)[C@H](O)COP(=O)(O)OP(=O)(O)OC[C@H]3O[C@@H](n4cnc5c(N)ncnc54)[C@H](O)[C@@H]3O)c2cc1C` [FAD]: the “UV-vis spectrum of purified flavoprotein; FAD quantified after SDS unfolding” value is “a clear yellow color was indicative of proper folding and FAD binding” in series [1]; “a clear yellow color was indicative of proper folding and FAD binding” in series [2].

B1: Sle_62070 (Streptomyces leeuwenhoekii) (protein)
chain: MTQGQTLSPEELAGLRERYRLERERRVRPDGTRQYLAADAEFGYYAEDPYAGEPPEREPLRDRVDVAVVGGGFGGILAGARLRRRGVRRVRVIEKGGDFGGTWYWNRYPGIHCDIESHVYLPLLDETGYVPEWKYAPGEEIRRHAVRIAEKFDLYADAQFSTAVTSLTWDEETRAWVVATDRGDEFRATYVITATGTLSELKLPGIPGIETFEGHTFHTSRWDYAYTGGTPDGGLTGLADKRVGVVGTGATGIQVIPKLAEDAGHLYVFQRTPSSVDVRANRRTTPQDVGADRDGWARERRDNFLRIVSGETAEEDLVADQWTASAGLLEKLVPSFRRQGDRTAFEAAYEVADAAKMNEIRARVERIVTDRDTAEKLKPWYRYACKRPTFSDTYLQAFNRDNVTLVDTADTHGIERMTERGVVVGGTEYALDCLIFATGFSVGVSGVHSGRLPVRGRGGVQLLDAWRKEGPRTLHGFTSNGFPNLIQMGTVQNASSVNYTHVLDEQAVHAAALVAAAEAKGAVIEPSREAEDAWIAVLAEDAPDHEWFHAECTPGYYNAEGRGRAKGPTAYPHGASAFHELLRRWREESMDGILRAGTPVRGPGGSTVS
notes: full-length, fused to N-terminal His-tagged phosphite dehydrogenase (PTDH) in pCRE2, fusion kept; expressed in E. coli NEB 10-beta; FAD flavoprotein
In the case of B1, the results for the Km in series [3] and in series [6] were 200 ± 10 µM and 3000 ± 300 µM, respectively. The kcat in series [3] was 4 ± 0.06 s⁻¹; in series [4] it was above 4 s⁻¹; in series [5], above 4 s⁻¹; in series [6], 4.1 s⁻¹. Besides, the kcat/Km was determined as 20000 M⁻¹ s⁻¹ in series [3], 1300 M⁻¹ s⁻¹ in series [4], 1300 M⁻¹ s⁻¹ in series [5] and 1300 M⁻¹ s⁻¹ in series [6].

What is called Km is the substrate concentration at which the rate is half of its maximum. As a reminder, the kcat is the number of substrate molecules converted per active site and unit of time at saturation. A word on the kcat/Km: it is the second-order rate constant that governs catalysis at low substrate concentration.
